Assay results as given in PMC4902918, “Production in Pichia pastoris of complementary protein-based polymers with heterodimer-forming WW and PPxY domains” (Microbial Cell Factories, 2016).
No end group written: not given here. C4^P polymer block = not defined here; O‑glycan = not defined here

B1: C4^P-D^PPxY* protein polymer (Ser12 to Ala mutant of the PPxY module, nonglycosylated) (other)
chain: {C4^P polymer block}-EYPPYPPPPYPAGPAGG
modifications: reading uncertain; also: nonglycosylated
B2: C4^P-D^PPxY protein polymer (C4^P polymer with a C-terminal PPxY proline-rich ligand), O-glycosylated (other)
chain: {C4^P polymer block}-EYPPYPPPPYPS(O‑glycan)GPAGG
modifications: reading uncertain; also: O-glycans heterogeneous, tentatively Man3 to Man7, mostly phosphorylated in diester linkage, minor fraction nonglycosylated

How the values were obtained:
[1] = molecular target: T1, C4^P-D^WW protein polymer (C4^P polymer with a C-terminal WW domain WWP1-1) (human); test: other fluorescence titration; steady-state tryptophan fluorescence (excitation 295 nm, emission 340 nm); 500 uL of 10 uM C4^P-D^WW in the cuvette, 500 uM ligand added stepwise up to ~24 uM; 10 mM sodium phosphate pH 7, RT; triplicate, fit on averaged data; conditions: both partners purified
T1 sequence (chain, as listed by the source): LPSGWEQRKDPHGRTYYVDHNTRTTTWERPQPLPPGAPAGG

[2] = molecular target: T1, C4^P-D^WW protein polymer (C4^P polymer …); test: ITC; MicroCal VP-ITC, 25 °C, 10 mM sodium phosphate pH 7; 200 uM C4^P-D^WW (1.4 mL) in the cell, 2.9 mM ligand in the syringe, 63 injections of 4 uL; triplicate, Kd values averaged; conditions: both partners purified

Row | Binder | Kd [1] | Kd [2] | stoichiometry N [2]
1 | B1 | 2.7 µM | 9.2 µM | ~0.9
2 | B2 | 2.5 µM | 9.3 µM | ~0.9
